T1: Sos-S1 peptide (Drosophila melanogaster, UniProt P26675)
T1 chain: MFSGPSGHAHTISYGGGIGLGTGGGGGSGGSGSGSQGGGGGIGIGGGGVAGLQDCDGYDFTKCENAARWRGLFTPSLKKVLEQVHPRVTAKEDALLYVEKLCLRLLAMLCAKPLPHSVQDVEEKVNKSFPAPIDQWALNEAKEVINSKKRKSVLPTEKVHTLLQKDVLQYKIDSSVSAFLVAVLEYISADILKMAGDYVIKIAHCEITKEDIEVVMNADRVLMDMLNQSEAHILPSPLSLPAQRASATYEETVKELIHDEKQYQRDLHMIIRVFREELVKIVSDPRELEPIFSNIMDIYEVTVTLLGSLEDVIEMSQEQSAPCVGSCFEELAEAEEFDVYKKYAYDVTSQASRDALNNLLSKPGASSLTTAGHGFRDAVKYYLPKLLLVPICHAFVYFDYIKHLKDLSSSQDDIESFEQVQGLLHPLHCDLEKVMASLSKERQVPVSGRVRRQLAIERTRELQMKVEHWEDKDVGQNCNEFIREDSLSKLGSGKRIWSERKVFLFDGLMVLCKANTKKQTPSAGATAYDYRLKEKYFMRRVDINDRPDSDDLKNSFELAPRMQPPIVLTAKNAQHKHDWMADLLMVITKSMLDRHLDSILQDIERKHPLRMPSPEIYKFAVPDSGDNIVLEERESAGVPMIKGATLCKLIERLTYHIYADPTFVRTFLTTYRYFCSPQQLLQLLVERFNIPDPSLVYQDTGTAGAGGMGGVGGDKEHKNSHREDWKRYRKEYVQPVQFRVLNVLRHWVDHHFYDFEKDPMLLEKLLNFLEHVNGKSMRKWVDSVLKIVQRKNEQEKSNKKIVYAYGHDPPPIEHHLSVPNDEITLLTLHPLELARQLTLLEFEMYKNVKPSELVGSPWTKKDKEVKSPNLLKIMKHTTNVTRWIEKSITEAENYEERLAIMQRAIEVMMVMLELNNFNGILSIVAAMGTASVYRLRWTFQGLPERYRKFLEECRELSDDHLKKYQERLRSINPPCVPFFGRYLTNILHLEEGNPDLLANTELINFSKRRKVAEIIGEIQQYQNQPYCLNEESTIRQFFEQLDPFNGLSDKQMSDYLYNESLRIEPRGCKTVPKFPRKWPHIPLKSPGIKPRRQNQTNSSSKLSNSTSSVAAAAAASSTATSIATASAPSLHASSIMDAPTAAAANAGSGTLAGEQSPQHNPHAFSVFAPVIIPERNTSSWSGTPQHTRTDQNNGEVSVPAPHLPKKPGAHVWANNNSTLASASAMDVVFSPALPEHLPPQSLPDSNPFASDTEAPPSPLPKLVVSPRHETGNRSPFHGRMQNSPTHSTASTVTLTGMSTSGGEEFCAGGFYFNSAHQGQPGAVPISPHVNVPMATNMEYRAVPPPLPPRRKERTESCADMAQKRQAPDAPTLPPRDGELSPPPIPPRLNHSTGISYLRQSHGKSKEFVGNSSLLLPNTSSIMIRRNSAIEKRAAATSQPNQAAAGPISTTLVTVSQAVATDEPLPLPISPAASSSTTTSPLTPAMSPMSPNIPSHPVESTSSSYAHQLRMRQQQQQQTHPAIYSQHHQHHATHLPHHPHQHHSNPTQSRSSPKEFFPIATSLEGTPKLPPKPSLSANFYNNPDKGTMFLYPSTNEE

T2: Sos-S2 peptide (Drosophila melanogaster, UniProt P26675)
T2 chain: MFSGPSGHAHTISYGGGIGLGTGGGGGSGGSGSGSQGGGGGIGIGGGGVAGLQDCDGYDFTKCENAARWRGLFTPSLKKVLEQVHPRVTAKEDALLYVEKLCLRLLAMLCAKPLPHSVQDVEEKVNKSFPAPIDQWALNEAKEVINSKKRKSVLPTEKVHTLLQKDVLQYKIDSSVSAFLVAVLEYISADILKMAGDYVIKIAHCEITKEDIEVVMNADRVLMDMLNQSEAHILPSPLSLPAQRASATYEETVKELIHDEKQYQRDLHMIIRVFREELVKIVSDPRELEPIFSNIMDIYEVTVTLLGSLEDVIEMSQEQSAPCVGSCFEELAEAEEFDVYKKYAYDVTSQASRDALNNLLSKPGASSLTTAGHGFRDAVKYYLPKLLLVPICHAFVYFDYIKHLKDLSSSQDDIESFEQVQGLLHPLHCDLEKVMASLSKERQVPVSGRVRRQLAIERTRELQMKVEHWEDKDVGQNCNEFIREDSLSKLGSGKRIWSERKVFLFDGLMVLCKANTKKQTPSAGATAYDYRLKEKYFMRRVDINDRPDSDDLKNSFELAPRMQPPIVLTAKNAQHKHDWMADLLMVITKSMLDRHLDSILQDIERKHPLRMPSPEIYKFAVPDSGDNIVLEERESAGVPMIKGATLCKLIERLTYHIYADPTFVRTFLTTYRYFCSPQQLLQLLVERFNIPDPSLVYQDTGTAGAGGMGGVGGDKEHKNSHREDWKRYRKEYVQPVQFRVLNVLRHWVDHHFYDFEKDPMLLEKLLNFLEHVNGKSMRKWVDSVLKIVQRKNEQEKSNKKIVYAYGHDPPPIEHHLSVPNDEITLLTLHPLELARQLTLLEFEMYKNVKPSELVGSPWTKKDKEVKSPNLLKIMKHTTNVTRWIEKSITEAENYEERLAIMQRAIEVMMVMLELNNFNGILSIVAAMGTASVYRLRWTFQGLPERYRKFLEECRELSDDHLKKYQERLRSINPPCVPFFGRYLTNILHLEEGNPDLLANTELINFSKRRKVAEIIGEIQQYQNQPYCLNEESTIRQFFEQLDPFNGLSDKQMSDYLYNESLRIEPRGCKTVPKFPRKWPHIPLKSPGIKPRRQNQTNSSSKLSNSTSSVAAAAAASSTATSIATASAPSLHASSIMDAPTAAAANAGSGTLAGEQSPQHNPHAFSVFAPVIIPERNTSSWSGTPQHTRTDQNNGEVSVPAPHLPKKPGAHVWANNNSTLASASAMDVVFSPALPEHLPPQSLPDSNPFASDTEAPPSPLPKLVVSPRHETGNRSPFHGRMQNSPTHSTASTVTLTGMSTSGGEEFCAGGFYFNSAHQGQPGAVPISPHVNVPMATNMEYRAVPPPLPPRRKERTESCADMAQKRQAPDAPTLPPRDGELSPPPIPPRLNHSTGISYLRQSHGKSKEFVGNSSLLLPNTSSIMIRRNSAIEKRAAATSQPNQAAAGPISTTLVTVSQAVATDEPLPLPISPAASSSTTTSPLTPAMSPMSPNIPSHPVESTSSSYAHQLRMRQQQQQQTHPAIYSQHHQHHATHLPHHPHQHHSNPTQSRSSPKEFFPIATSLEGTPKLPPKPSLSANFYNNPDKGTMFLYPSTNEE


Tests used:
[1] = target: T1, Sos-S1 peptide; assay: NMR titration
[2] = target: T2, Sos-S2 peptide; assay: NMR titration

Binder | Kd [1] | Kd [2]
Drk NSH3 (protein) MEAIAKHDFSATADDELSFRKTQILKILNMEDDSNWYRAELDGKEGLIPSNYIEMKNH | ~13 µM | ~41 µM
Drk CSH3 (protein) PEEMLVQALYDFVPQESGELDFRRGDVITVTDRSDENWWNGEIGNRKGIFPATYVTPYHS | ~160 µM | –

Reference: paper PMC10532153 (2023)
